Tests used:
[1] = ITC titration of folate into the crowders; format: binding
[2] = target: hemoglobin; conditions: read-out: Kd of folate for central cavity of hemoglobin; cited from earlier work
[3] = target: R67 DHFR-NADP^+ (Escherichia coli, UniProt P00383); test: ITC, DHF binding to binary complex of R67 DHFR and NADP+
[4] = target: EcDHFR (Escherichia coli, UniProt P0ABQ4); conditions: for decrease of kcat, DHF reduction by EcDHFR: crowder at 50 mg/mL
[5] = target: apo-EcDHFR (Escherichia coli, UniProt P0ABQ4); test: ITC, NADP+ binding to apo-EcDHFR; set-up: species or system E. coli
[6] = target: R67 DHFR (Escherichia coli, UniProt P00383); test: Progress curve kinetics, reduction of DHF by R67 DHFR; format: biochemical; conditions: saturating NADPH, progress curves
Sequence of R67 DHFR (P00383 whole entry): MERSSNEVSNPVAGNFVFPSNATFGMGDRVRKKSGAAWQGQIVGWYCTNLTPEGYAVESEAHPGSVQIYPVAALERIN

Sequence of EcDHFR (P0ABQ4 whole entry): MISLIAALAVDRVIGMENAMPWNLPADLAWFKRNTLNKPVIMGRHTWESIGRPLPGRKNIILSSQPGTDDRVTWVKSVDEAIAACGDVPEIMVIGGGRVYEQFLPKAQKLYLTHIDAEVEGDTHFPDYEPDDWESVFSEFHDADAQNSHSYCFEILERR
Sequence of R67 DHFR-NADP^+ (P00383 whole entry): as the sequence (P00383 whole entry) above
Sequence of apo-EcDHFR (P0ABQ4 whole entry): as the sequence (P0ABQ4 whole entry) above

Nc1nc(=O)c2nc(CNc3ccc(C(=O)N[C@@H](CCC(=O)O)C(=O)O)cc3)cnc2[nH]1 [folate]
heat of binding on titration into the crowders [1]: no heat of binding | Kd [2]: ~1000 µM

Hemoglobin: bovine hemoglobin, 64,500 Da, protein crowder
weakening of R67 DHFR affinity for DHF ([3]; crowder at 50 mg/mL): 5.5 fold

casein
effect on kcat, DHF reduction by EcDHFR ([4]; over the range of concentrations used): did not alter the kcat

lysozyme: hen egg-white lysozyme, 14,300 Da, protein crowder
decrease of affinity of NADP^+ for EcDHFR ([5]; crowder at 50 mg/mL): 5 fold | effect on efficiency (kcat/KM) of R67 DHFR reduction of DHF [6]: increases the efficiency | decrease of kcat, DHF reduction by EcDHFR [4]: about 60%

B1: ovalbumin: protein crowder isolated from fresh eggs (protein, UniProt P01012 2-386, looked up)
Ovalbumin: GSIGAASMEFCFDVFKELKVHHANENIFYCPIAIMSALAMVYLGAKDSTRTQINKVVRFDKLPGFGDSIEAQCGTSVNVHSSLRDILNQITKPNDVYSFSLASRLYAEERYPILPEYLQCVKELYRGGLEPINFQTAADQARELINSWVESQTNGIIRNVLQPSSVDSQTAMVLVNAIVFKGLWEKAFKDEDTQAMPFRVTEQESKPVQMMYQIGLFRVASMASEKMKILELPFASGTMSMLVLLPDEVSGLEQLESIINFEKLTEWTSSNVMEERKIKVYLPRMKMEEKYNLTSVLMAMGITDVFSSSANLSGISSAESLKISQAVHAAHAEINEAGREVVGSAEAGVDAASVSEEFRADHPFLFCIKHIATNAVLFFGRCVSP
effect on the affinity of R67 DHFR for DHF ([3]; crowder added, ITC): little effect | effect on affinity of NADP^+ for apo-EcDHFR ([5]; over the concentration ranges used (up to 150 mg/mL with PVP-55)): no effect on affinity | decrease of kcat, DHF reduction by EcDHFR [4]: about 60%
